The source of these data is publication PMC4036194.

Test [1] deals with Full-length C24A β3 mutant with a carboxyl-terminal Myc epitope tag. The test is described as follows: atomic force microscopy (AFM) imaging; Myc-tagged β3 (wild type or C24A) immunoisolated from tsA 201 detergent extract, diluted to ~40 pM, adsorbed to mica, imaged in air in tapping mode; molecular volumes of particles.
The target in test [2] is mEos2-labeled acid-sensing ion channel hASIC (UniProt P78348). Nature of the test: fluorescence photoactivated localization microscopy (FPALM) with pair correlation analysis; mEos2 fusions on the plasma membrane of fixed, transfected HEK293 cells; TIRF-PALM; 30 regions of 1 μm^2 on five cells; proteins per cluster.

Chain of mEos2-labeled acid-sensing ion channel hASIC (from UniProt P78348 1-528) (natural protein) (P78348 whole entry): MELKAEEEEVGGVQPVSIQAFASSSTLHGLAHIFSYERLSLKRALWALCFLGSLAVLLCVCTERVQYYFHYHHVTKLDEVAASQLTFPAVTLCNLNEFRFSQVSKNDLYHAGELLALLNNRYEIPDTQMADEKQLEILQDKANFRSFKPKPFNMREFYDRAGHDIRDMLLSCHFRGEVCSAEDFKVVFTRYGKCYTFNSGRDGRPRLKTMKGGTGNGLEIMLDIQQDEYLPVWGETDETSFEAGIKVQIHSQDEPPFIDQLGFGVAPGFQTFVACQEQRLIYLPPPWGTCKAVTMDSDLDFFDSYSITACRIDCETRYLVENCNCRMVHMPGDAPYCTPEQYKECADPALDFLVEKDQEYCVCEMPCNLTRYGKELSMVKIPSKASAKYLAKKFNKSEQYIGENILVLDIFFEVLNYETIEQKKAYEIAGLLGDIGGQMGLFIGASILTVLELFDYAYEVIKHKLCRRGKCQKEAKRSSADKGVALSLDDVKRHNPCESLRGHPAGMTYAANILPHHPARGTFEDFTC

Usually stoichiometry N stands for a count of units in the complex or per binding partner. The substance “Full-length C24A β3 mutant with a carboxyl-terminal Myc epitope tag (natural protein)” displayed a stoichiometry N in test [1] of 2.
Regarding “mEos2-labeled acid-sensing ion channel hASIC (from UniProt P78348 1-528) (natural protein)”, in test [2], the stoichiometry N was found to be 3.
